Here are results for 5 molecules from patent US20140161790A1 (Xencor, published 2014).

For test [1], the target named is T1, human FcRn (heterodimer of alpha chain and beta2-microglobulin) (human, UniProt P55899 24-297; P61769 21-119, limits assumed).
T1 construct: Co-expressed in HEK293T cells; also called hFcRn; human neonatal Fc receptor
In words: SPR, FcRn coupled directly to CM5 chip, antibody analyte at 200 nM bound at pH 6.0, dissociation at pH 7.4; avid format, relative values only. In general terms: In SPR one partner is held on a chip, and binding of the other changes the refractive index at the surface.

Test [2] addresses T1, human FcRn (heterodimer of alpha chain …). In words: SPR as above, pH 6.0; fold KD against native IgG1.
Test [3] shares this target. Nature of the test: SPR (Biacore 3000), antibody captured on immobilized VEGF, human FcRn as analyte, pH 6.0, 1:1 Langmuir fit.

As a reminder, the koff is a measure of how fast the partners let go of each other. The term Kd denotes a measure of binding affinity in units of concentration. A higher Kd goes with lower affinity. As usually defined, the kon is a measure of how fast the partners come together.

T1 sequence (P55899 24-297 limits assumed, chain 1 of 2): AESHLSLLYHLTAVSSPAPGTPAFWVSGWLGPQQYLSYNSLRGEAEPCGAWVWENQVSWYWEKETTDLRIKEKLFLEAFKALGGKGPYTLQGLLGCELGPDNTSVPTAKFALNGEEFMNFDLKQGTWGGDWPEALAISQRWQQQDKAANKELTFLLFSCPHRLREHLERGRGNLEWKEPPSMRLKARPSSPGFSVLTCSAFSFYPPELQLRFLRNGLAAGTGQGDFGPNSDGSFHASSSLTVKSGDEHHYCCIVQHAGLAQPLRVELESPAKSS
T1 sequence (P61769 21-119 limits assumed, chain 2 of 2): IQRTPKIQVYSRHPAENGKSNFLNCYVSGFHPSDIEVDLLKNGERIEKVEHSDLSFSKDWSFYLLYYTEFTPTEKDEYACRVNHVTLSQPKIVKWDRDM

B1: bevacizumab IgG1 Fc variant N434S (antibody)
heavy: not shown
light: not shown
notes: copies: 2 + 2
On to B1, for which the koff in test [1] was determined as 0.29 s⁻¹.

B2: bevacizumab IgG1 Fc variant M252Y/S254T/T256E (antibody)
heavy: EVQLVESGGGLVQPGGSLRLSCAASGYTFTNYGMNWVRQAPGKGLEWVGWINTYTGEPTYAADFKRRFTFSLDTSKSTAYLQMNSLRAEDTAVYYCAKYPHYYGSSHWYFDVWGQGTLVTVSSASTKGPSVFPLAPSSKSTSGGTAALGCLVKDYFPEPVTVSWNSGALTSGVHTFPAVLQSSGLYSLSSVVTVPSSSLGTQTYICNVNHKPSNTKVDKKVEPKSCDKTHTCPPCPAPELLGGPSVFLFPPKPKDTLYITREPEVTCVVVDVSHEDPEVKFNWYVDGVEVHNAKTKPREEQYNSTYRVVSVLTVLHQDWLNGKEYKCKVSNKALPAPIEKTISKAKGQPREPQVYTLPPSREEMTKNQVSLTCLVKGFYPSDIAVEWESNGQPENNYKTTPPVLDSDGSFFLYSKLTVDKSRWQQGNVFSCSVMHEALHNHYTQKSLSLSPGK
light: not shown
notes: also called YTE; copies: 2 + 2
Consider B2, for which the koff in test [1] was determined as 0.32 s⁻¹. Also, the “Fold KD” value in test [2] was 7.24 fold. Also, in test [3], the Kd was found to be 340 nM, the off-rate constant (koff) came out at 0.0549 s⁻¹ and the kon came to 162000 M⁻¹ s⁻¹.

B3: bevacizumab IgG1 Fc variant V259I/V308F/M428L (antibody)
heavy: EVQLVESGGGLVQPGGSLRLSCAASGYTFTNYGMNWVRQAPGKGLEWVGWINTYTGEPTYAADFKRRFTFSLDTSKSTAYLQMNSLRAEDTAVYYCAKYPHYYGSSHWYFDVWGQGTLVTVSSASTKGPSVFPLAPSSKSTSGGTAALGCLVKDYFPEPVTVSWNSGALTSGVHTFPAVLQSSGLYSLSSVVTVPSSSLGTQTYICNVNHKPSNTKVDKKVEPKSCDKTHTCPPCPAPELLGGPSVFLFPPKPKDTLMISRTPEITCVVVDVSHEDPEVKFNWYVDGVEVHNAKTKPREEQYNSTYRVVSVLTFLHQDWLNGKEYKCKVSNKALPAPIEKTISKAKGQPREPQVYTLPPSREEMTKNQVSLTCLVKGFYPSDIAVEWESNGQPENNYKTTPPVLDSDGSFFLYSKLTVDKSRWQQGNVFSCSVLHEALHNHYTQKSLSLSPGK
light: not shown
notes: also called IFL; copies: 2 + 2
The molecule B3 showed a koff in test [1] of 0.13 s⁻¹. The “Fold KD” value in test [2] is 19.8 fold. In test [3], this molecule returned a Kd of 124 nM, a koff of 0.0238 s⁻¹ and a kon of 192000 M⁻¹ s⁻¹.

B4: bevacizumab IgG1 Fc variant M428L/N434S (antibody)
heavy: not shown
light: not shown
notes: also called LS; LS bevacizumab variant; copies: 2 + 2
In test [1], B4 came in with a koff of 0.33 s⁻¹.

B5: bevacizumab IgG1 Fc variant V259I/V308F (antibody)
heavy: not shown
light: not shown
notes: also called IF; copies: 2 + 2
As for B5, in test [1], the koff came out at 0.6 s⁻¹. The “Fold KD” value in test [2] stood at 5.8 fold. Besides, in test [3], the Kd came out at 424 nM, the koff was determined as 0.0752 s⁻¹ and the kon stood at 178000 M⁻¹ s⁻¹.
